The values that follow come from article PMC2442654 (PLoS ONE, 2008).

This data set deals with the molecule itself. In words: thioflavin T fluorescence + AFM (de novo amyloid fibril formation).

B1: recombinant mouse full-length prion protein, MoPrP (23-231), unexposed (natural protein)
chain: not shown
As for B1, the binding result is on record as “binds”.
